Assay results reported in US20150140169.
Residue numbers refer to the chain shown, from its start. Names and notes keep the numbering of the source.

T1: alpha-s1 casein from Bos taurus
T1 chain: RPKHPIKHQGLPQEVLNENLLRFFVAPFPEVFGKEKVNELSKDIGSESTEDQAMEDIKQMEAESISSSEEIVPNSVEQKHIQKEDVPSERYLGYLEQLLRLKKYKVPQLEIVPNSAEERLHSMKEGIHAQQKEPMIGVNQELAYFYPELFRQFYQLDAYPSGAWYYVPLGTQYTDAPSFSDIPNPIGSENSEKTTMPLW

B1: camel chymosin variant #141 (F223N) (protein)
chain: GKVAREPLTSYLDSQYFGKIYIGTPPQEFTVVFDTGSSDLWVPSIYCKSNVCKNHHRFDPRKSSTFRNLGKPLSIHYGTGSMEGFLGYDTVTVSNIVDPNQTVGLSTEQPGEVFTYSEFDGILGLAYPSLASEYSVPVFDNMMDRHLVARDLFSVYMDRNGQGSMLTLGAIDPSYYTGSLHWVPVTLQQYWQFTVDSVTINGVAVACVGGCQAILDTGTSVLNGPSSDILKIQMAIGATENRYGEFDVNCGNLRSMPTVVFEINGRDYPLSPSAYTSKDQGFCTSGFQGDNNSELWILGDVFIREYYSVFDRANNRVGLAKAI
B2: camel chymosin variant #142 (F223Q) (protein)
chain: B1 chain with N223Q
B3: camel chymosin variant #143 (F223V) (protein)
chain: B1 chain with N223V
B4: camel chymosin variant #144 (F223Y) (protein)
chain: B1 chain with N223Y
B5: camel chymosin variant #145 (F223I) (protein)
chain: B1 chain with N223I
B6: camel chymosin variant #146 (Q288G) (protein)
chain: B1 chain with N223F, Q288G
B7: camel chymosin variant #147 (Q288H) (protein)
chain: B1 chain with N223F, Q288H
B8: camel chymosin variant #148 (Q288N) (protein)
chain: B1 chain with N223F, Q288N
B9: camel chymosin variant #149 (Q288R) (protein)
chain: B1 chain with N223F, Q288R
B10: camel chymosin variant #150 (Q288S) (protein)
chain: B1 chain with N223F, Q288S
B11: camel chymosin variant #151 (D290A) (protein)
chain: B1 chain with N223F, D290A
B12: bovine chymosin B variant #1 (A51V) (protein)
chain: GEVASVPLTNYLDSQYFGKIYLGTPPQEFTVLFDTGSSDFWVPSIYCKSNVCKNHQRFDPRKSSTFQNLGKPLSIHYGTGSMQGILGYDTVTVSNIVDIQQTVGLSTQEPGDVFTYAEFDGILGMAYPSLASEYSIPVFDNMMNRHLVAQDLFSVYMDRNGQESMLTLGAIDPSYYTGSLHWVPVTVQQYWQFTVDSVTISGVVVACEGGCQAILDTGTSKLVGPSSDILNIQQAIGATQNQYGEFDIDCDNLSYMPTVVFEINGKMYPLTPSAYTSQDQGFCTSGFQSENHSQKWILGDVFIREYYSVFDRANNLVGLAKAI
B13: camel chymosin variant #152 (D290G) (protein)
chain: B1 chain with N223F, D290G
B14: camel chymosin variant #153 (D290L) (protein)
chain: B1 chain with N223F, D290L
B15: camel chymosin variant #154 (D290M) (protein)
chain: B1 chain with N223F, D290M
B16: camel chymosin variant #155 (D290Q) (protein)
chain: B1 chain with N223F, D290Q
B17: Chymax M (recombinant camel chymosin) (protein)
chain: B1 chain with N223F
B18: camel chymosin variant #156 (D290S) (protein)
chain: B1 chain with N223F, D290S
B19: camel chymosin variant #157 (D290T) (protein)
chain: B1 chain with N223F, D290T
B20: camel chymosin variant #158 (L295F) (protein)
chain: B1 chain with N223F, L295F
B21: camel chymosin variant #159 (L295I) (protein)
chain: B1 chain with N223F, L295I
B22: camel chymosin variant #160 (L295K) (protein)
chain: B1 chain with N223F, L295K
B23: camel chymosin variant #161 (L295M) (protein)
chain: B1 chain with N223F, L295M

Molecular target: T1, alpha-s1 casein from Bos taurus

Protein | (αSN1-1)/(αSN1), 6 hours, 11° C. | (αSN1-1)/(αSN1), 24 hours, 11° C. | αs1-I CN, 6 hours, 11° C. [Volume] | αs1-I CN, 24 hours, 11° C. [Volume] | αs1 CN, 6 hours, 11° C. [Volume] | αs1 CN, 24 hours, 11° C. [Volume] | hydrolysis of the first cut in alpha-s1-casein | small, 6 hours, 11° C. [Volume] | small, 24 hours, 11° C. [Volume] | αs1-I CN/αs1 CN, 6 hours, 11° C.
B1 | 0.7 | 2 | 2.57e+07 | 2.49e+07 | 3.57e+07 | 1.27e+07 |  |  |  | 
B2 | 0.7 | 1.7 | 2.55e+07 | 1.75e+07 | 3.72e+07 | 1.02e+07 |  |  |  | 
B3 | 1.1 | 2.4 | 2.62e+07 | 1e+07 | 2.36e+07 | 4.1e+06 |  |  |  | 
B4 | 1 | 3.3 | 3.05e+07 | 2.82e+07 | 3.12e+07 | 8.4e+06 |  |  |  | 
B5 | 1.2 | 4.1 | 1.91e+07 | 1.17e+07 | 1.57e+07 | 2.8e+06 |  |  |  | 
B6 | 0.9 | 2.3 | 2.17e+07 | 2.85e+07 | 2.38e+07 | 1.23e+07 |  |  |  | 
B7 | 1.1 | 3.3 | 2.28e+07 | 2.35e+07 | 2.15e+07 | 7e+06 |  |  |  | 
B8 | 0.6 | 1.3 | 1.74e+07 | 2.62e+07 | 2.83e+07 | 2.03e+07 |  |  |  | 
B9 | 1 | 3.3 | 2.16e+07 | 2.25e+07 | 2.22e+07 | 6.7e+06 |  |  |  | 
B10 | 0.6 | 1.3 | 1.83e+07 | 2.31e+07 | 2.87e+07 | 1.72e+07 |  |  |  | 
B11 | 1 | 2.5 | 2.29e+07 | 3.22e+07 | 2.31e+07 | 1.31e+07 |  |  |  | 
B12 |  |  | 1.88e+07 | 2.36e+07 | 2.05e+07 | 5.8e+06 | show a clear hydrolysis of the first cut in alpha-s1-casein, leading to a rapid formation of fragment alpha-s1-I casein | 0 | 0 | 0.9
B13 | 0.9 | 3.4 | 2.18e+07 | 3.33e+07 | 2.51e+07 | 9.7e+06 |  |  |  | 
B14 | 1 | 4.9 | 2.35e+07 | 3.49e+07 | 2.36e+07 | 7.1e+06 |  |  |  | 
B15 | 1.1 | 4.6 | 2.69e+07 | 3.77e+07 | 2.52e+07 | 8.3e+06 |  |  |  | 
B16 | 0.7 | 2.5 | 2.03e+07 | 3.36e+07 | 3.02e+07 | 1.35e+07 |  |  |  | 
B17 |  |  | 1.28e+07 | 1.62e+07 | 2.73e+07 | 1.25e+07 | shows a slow first cut in alpha-s1 casein | 0 | 1.1e+07 | 0.5
B18 | 0.5 | 1.9 | 1.7e+07 | 3.16e+07 | 3.15e+07 | 1.71e+07 |  |  |  | 
B19 | 0.6 | 1.7 | 1.76e+07 | 2.38e+07 | 3.07e+07 | 1.36e+07 |  |  |  | 
B20 | 0.7 | 2.3 | 1.95e+07 | 2.22e+07 | 2.63e+07 | 9.8e+06 |  |  |  | 
B21 | 0.6 | 1.8 | 1.7e+07 | 1.97e+07 | 2.95e+07 | 1.11e+07 |  |  |  | 
B22 | 0.6 | 2.1 | 1.81e+07 | 2.49e+07 | 2.95e+07 | 1.2e+07 |  |  |  | 
B23 | 0.6 | 2 | 1.96e+07 | 2.23e+07 | 3.15e+07 | 1.1e+07 |  |  |  | 

Same assay, conditions: not given

Protein | αs1-I CN/αs1 CN, 24 hours, 11° C. | (αSN1-1)/(αSN1), 6 hours, 11° C. (average) | (αSN1-1)/(αSN1), 24 hours, 11° C. (average) | small, 16 hours, 30° C. [Volume] | αs1-I CN, 6 hours, 11° C. (average) [Volume] | αs1-I CN, 16 hours, 30° C. [Volume] | αs1-I CN, 24 hours, 11° C. (average) [Volume] | αs1 CN, 6 hours, 11° C. (average) [Volume] | αs1 CN, 16 hours, 30° C. [Volume] | αs1 CN, 24 hours, 11° C. (average) [Volume]
B12 | 4.1 |  |  |  |  |  |  |  |  | 
B17 | 1.3 | 0.5 | 1.2 | 9e+06 | 1.81e+07 | 4.3e+06 | 2.13e+07 | 3.52e+07 | 0 | 1.73e+07
